Experimental data from article PMC4873976, “Structural basis for haem piracy from host haemopexin by Haemophilus influenzae” (Nature Communications, 2016).

What was measured:
Settings in all cases: both partners purified
[1] = target: T1, HxuA (cysteine-less variant, Cys855 and Cys861 replaced by serines; referred to as HxuA throughout) (Haemophilus influenzae, UniProt P44602 22-905, Cys855 replaced by serine | Cys861 replaced by serine); test: ITC; haemopexin or its fragment (~100 uM) in the syringe, HxuA or mutant (~10 uM) in the cell; 25 °C; 20 mM Na-phosphate pH 7.0; single-site model; apparent Ka; mean of one to three experiments
T1 construct: also called WT; HxuAWT; source: E. coli BL21 with a pBAD24 derivative harbouring the hxuCBA operon; purified from the culture supernatant (ammonium sulfate, SEC, monoQ)
T1 sequence: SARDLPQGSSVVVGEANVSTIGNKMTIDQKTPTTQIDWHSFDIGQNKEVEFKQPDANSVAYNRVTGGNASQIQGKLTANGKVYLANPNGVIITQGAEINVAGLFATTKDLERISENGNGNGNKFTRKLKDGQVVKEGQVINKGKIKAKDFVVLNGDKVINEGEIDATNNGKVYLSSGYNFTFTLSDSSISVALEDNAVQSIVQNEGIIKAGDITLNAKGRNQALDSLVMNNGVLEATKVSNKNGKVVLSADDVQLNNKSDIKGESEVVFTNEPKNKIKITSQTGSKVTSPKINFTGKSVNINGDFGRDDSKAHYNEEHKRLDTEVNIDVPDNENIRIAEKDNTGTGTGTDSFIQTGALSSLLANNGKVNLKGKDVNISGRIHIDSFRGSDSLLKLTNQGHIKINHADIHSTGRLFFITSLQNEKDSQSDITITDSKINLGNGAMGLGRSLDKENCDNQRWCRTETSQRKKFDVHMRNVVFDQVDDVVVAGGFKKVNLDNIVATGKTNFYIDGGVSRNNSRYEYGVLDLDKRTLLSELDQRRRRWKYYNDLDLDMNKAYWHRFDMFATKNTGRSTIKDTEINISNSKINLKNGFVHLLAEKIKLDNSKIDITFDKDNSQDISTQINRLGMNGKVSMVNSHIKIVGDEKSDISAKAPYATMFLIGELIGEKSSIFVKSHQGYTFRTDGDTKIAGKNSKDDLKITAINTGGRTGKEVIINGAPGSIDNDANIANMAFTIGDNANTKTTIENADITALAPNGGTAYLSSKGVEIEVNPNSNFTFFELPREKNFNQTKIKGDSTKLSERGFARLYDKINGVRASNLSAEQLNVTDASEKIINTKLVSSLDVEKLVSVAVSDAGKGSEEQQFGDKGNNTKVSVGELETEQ

[2] = target: T2, HxuA^DEL (M loop deletion), cysteine-less (dm) variant (Haemophilus influenzae, UniProt P44602 22-905, additional Pro codon replacing the initial 712-728 sequence | Cys855 replaced …); test: as above
T2 construct: source: E. coli BL21 with a pBAD24 derivative harbouring the hxuCBA operon; purified from the culture supernatant (same protocol as HxuA)
T2 sequence: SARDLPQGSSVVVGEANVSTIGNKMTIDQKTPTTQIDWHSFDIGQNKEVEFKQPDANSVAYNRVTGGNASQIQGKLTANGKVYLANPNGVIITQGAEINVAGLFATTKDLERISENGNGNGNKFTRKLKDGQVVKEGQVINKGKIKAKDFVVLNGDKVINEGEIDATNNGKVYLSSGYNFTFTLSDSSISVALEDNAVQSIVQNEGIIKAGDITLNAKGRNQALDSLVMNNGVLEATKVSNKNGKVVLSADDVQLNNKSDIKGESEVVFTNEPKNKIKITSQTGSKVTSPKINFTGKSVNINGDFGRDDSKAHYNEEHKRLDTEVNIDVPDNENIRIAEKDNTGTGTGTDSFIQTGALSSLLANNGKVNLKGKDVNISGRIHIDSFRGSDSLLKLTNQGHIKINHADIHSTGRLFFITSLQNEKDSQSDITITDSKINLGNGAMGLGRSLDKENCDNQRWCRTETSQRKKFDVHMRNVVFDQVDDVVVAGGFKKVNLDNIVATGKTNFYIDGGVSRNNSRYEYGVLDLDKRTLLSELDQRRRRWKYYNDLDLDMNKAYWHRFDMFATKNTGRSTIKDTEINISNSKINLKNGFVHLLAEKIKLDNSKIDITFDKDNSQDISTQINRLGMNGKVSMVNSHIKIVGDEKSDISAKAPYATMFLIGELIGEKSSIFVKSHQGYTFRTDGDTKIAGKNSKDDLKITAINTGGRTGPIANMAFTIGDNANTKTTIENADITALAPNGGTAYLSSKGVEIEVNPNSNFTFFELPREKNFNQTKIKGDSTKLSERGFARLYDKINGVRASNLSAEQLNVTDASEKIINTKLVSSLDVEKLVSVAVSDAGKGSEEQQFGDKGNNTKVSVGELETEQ

[3] = target: T3, HxuA^Asp726Ala, cysteine-less (dm) variant (Haemophilus influenzae, UniProt P44602 22-905, Asp726Ala | Cys855 replaced by serine | Cys861 replaced by serine); test: as above
T3 construct: source: E. coli BL21 with a pBAD24 derivative harbouring the hxuCBA operon; purified from the culture supernatant (same protocol as HxuA)
T3 sequence: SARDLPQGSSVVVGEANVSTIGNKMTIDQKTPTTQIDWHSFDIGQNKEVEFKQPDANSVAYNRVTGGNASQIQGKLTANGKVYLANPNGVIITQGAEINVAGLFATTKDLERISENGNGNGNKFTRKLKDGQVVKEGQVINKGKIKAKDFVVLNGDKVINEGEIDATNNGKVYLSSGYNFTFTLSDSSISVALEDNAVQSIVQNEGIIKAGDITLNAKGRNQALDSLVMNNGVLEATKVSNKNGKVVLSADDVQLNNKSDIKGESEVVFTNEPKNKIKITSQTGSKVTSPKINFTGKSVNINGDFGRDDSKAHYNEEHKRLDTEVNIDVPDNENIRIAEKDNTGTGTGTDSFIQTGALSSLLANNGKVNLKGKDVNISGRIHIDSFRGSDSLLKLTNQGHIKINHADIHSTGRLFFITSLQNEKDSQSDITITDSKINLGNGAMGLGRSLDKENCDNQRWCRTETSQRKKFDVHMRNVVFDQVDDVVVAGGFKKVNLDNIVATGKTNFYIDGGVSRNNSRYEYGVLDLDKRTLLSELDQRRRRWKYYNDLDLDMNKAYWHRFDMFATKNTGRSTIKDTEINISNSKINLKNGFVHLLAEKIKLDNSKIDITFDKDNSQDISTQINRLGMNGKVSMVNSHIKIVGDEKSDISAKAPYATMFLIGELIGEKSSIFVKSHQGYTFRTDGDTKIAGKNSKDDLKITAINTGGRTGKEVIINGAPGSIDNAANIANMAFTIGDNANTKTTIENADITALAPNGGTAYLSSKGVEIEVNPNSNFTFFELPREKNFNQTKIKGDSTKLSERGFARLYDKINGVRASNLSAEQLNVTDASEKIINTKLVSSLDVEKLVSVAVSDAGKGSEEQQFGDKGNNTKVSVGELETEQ

[4] = target: T4, HxuA, cysteine-less variant (cysteines 855 and 861 replaced by serines; referred to as HxuA throughout) (Haemophilus influenzae, UniProt P44602 22-905, cysteine at position 855 replaced by serine | cysteine at position 861 replaced …); test: ITC; haemopexin or its fragments (~100 μM) in the syringe, HxuA (~10 μM) in the cell; 20 mM Na-phosphate pH 7.0, 25 °C; single-site model; apparent Ka
T4 construct: HxuA, haem-haemopexin utilisation protein A (TpsA cargo protein) of Haemophilus influenzae, called full-length, 884 residues, Ser1 to Gln884; Measured mass 96,467.6094 (theoretical 96,469.6926); also called HxuAdm; dm variant; source: E. coli BL21, pBAD24 derivative with the hxuCBA operon; purified from the culture supernatant (ammonium sulfate, SEC, monoQ)
T4 sequence: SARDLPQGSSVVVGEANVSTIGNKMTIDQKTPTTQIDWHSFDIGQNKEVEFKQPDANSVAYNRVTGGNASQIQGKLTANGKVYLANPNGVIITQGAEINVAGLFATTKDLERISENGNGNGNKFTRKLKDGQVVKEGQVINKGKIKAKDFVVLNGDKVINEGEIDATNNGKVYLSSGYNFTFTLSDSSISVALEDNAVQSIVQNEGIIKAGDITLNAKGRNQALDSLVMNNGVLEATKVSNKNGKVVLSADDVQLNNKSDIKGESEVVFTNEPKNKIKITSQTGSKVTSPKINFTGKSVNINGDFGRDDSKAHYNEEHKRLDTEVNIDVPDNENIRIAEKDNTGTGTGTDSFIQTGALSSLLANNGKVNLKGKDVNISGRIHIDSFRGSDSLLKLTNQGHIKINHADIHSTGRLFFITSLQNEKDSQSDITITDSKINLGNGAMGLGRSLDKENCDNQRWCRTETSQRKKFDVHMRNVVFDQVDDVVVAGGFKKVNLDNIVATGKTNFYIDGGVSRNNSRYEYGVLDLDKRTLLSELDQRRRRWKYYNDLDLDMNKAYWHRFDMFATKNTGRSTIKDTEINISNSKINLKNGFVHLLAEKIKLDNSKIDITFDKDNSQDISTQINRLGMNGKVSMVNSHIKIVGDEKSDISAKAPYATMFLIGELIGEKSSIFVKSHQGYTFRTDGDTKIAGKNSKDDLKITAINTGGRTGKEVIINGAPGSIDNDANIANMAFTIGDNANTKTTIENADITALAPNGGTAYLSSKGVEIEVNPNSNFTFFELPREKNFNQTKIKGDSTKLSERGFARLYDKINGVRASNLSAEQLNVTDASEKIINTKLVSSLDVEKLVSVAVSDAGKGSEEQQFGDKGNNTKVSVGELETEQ

B1: rabbit haemopexin (haem-free) (natural protein)
chain: VPLTSAHGNVTEGESGTKPEADVIEQCSDGWSFDATTLDDNGTMLFFKDEFVWKSHRGIRELISERWKNFIGPVDAAFRHGHTSVYLIKGDKVWVYTSEKNEKVYPKSLQDEFPGIPFPLDAAVECHRGECQDEGILFFQGNRKWFWDLTTGTKKERSWPAVGNCTSALRWLGRYYCFQGNQFLRFNPVSGEVPPGYPLDVRDYFLSCPGRGHRSSHRNSTQHGHESTRCDPDLVLSAMVSDNHGATYVFSGSHYWRLDTNRDGWHSWPIAHQWPQGPSTVDAAFSWEDKLYLIQDTKVYVFLTKGGYTLVNGYPKRLEKELGSPPVISLEAVDAAFVCPGSSRLHIMAGRRLWWLDLKSGAQATWTELPWPHEKVDGALCMEKPLGPNSCSTSGPNLYLIHGPNLYCYRHVDKLNAAKNLPQPQRVSRLLGCTH
notes: Glycoprotein from serum; also called Hpx; hemopexin; source: purified from rabbit serum (Biosera)
Ka [1]: > 1e+09 M⁻¹ | stoichiometry N [1]: 0.8 | Ka [2]: > 1e+09 M⁻¹ | stoichiometry N [2]: 1.07 | Ka [3]: > 1e+09 M⁻¹ | stoichiometry N [3]: 0.68

B2: rabbit haemopexin (haem-free) (natural protein)
chain: VPLTSAHGNVTEGESGTKPEADVIEQCSDGWSFDATTLDDNGTMLFFKDEFVWKSHRGIRELISERWKNFIGPVDAAFRHGHTSVYLIKGDKVWVYTSEKNEKVYPKSLQDEFPGIPFPLDAAVECHRGECQDEGILFFQGNRKWFWDLTTGTKKERSWPAVGNCTSALRWLGRYYCFQGNQFLRFNPVSGEVPPGYPLDVRDYFLSCPGRGHRSSHRNSTQHGHESTRCDPDLVLSAMVSDNHGATYVFSGSHYWRLDTNRDGWHSWPIAHQWPQGPSTVDAAFSWEDKLYLIQDTKVYVFLTKGGYTLVNGYPKRLEKELGSPPVISLEAVDAAFVCPGSSRLHIMAGRRLWWLDLKSGAQATWTELPWPHEKVDGALCMEKPLGPNSCSTSGPNLYLIHGPNLYCYRHVDKLNAAKNLPQPQRVSRLLGCTH
notes: haemopexin, rabbit, serum glycoprotein, called full-length; two MMP domains (residues 1-208 and 228-435) joined by a linker; Glycoprotein from serum; also called Hpx; full-length haemopexin; source: purified from rabbit serum (Biosera): perchloric acid, PEG 3400, S-sepharose, mono Q, SEC
dH [4]: -52.7 kcal/mol

B3: rabbit haem-haemopexin (natural protein)
chain: VPLTSAHGNVTEGESGTKPEADVIEQCSDGWSFDATTLDDNGTMLFFKDEFVWKSHRGIRELISERWKNFIGPVDAAFRHGHTSVYLIKGDKVWVYTSEKNEKVYPKSLQDEFPGIPFPLDAAVECHRGECQDEGILFFQGNRKWFWDLTTGTKKERSWPAVGNCTSALRWLGRYYCFQGNQFLRFNPVSGEVPPGYPLDVRDYFLSCPGRGHRSSHRNSTQHGHESTRCDPDLVLSAMVSDNHGATYVFSGSHYWRLDTNRDGWHSWPIAHQWPQGPSTVDAAFSWEDKLYLIQDTKVYVFLTKGGYTLVNGYPKRLEKELGSPPVISLEAVDAAFVCPGSSRLHIMAGRRLWWLDLKSGAQATWTELPWPHEKVDGALCMEKPLGPNSCSTSGPNLYLIHGPNLYCYRHVDKLNAAKNLPQPQRVSRLLGCTH
modifications: haem bound
notes: Same chain as Dm4, with haem; also called He-Hpx; HeHpx; source: purified from rabbit serum (Biosera), haem-loaded
stoichiometry N [1]: 0.96 | stoichiometry N [2]: 0.89 | stoichiometry N [3]: 1.06
